± gives the standard error. For some of these results: Variants at the floor of the assay were thinned out.
B1: glmS ribozyme (parent)
chain: AUAAAAGCGCCAGAACUACAGAAAUGUAGUUGACGAGGAGGAGGUUUAUCGAAUUUUCGGCGGAUGCCUCCAAA

Experiments:
Conditions in all cases: with glucosamine-6-phosphate
[1] = variants of: B1; assay: kcat; higher = faster cleavage; RNA array
How it was run: (§1)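 In situ transcription by E. coli RNA polymerase produced barcoded ribozyme variants on sequenced MiSeq chips, and a hybridised Cy3 probe tracked them at 37 °C. Glucosamine-6-phosphate was flowed in at 40 μM to 10 mM in HEPES/KCl/Mg(OAc)2 buffer. kcat and KM were taken from weighted Michaelis–Menten fits of kobs values from exponential decay fits.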

[2] = variants of: B1; assay: self-cleavage kobs at 40 uM GlcN6P; higher = faster cleavage; RNA array
How it was run: as §1

[3] = variants of: B1; assay: self-cleavage kobs at 10000 uM GlcN6P; higher = faster cleavage; RNA array
How it was run: as §1

[4] = variants of: B1; assay: KM; higher = weaker cofactor use; RNA array
How it was run: as §1

[5] = variants of: B1; assay: self-cleavage kobs at 640 uM GlcN6P; higher = faster cleavage; RNA array
How it was run: as §1

[6] = variants of: B1; assay: self-cleavage kobs at 2500 uM GlcN6P; higher = faster cleavage; RNA array
How it was run: as §1

[7] = variants of: B1; assay: self-cleavage kobs at 160 uM GlcN6P; higher = faster cleavage; RNA array
How it was run: as §1

Row | Variant | kcat [1] [s⁻¹] | self-cleavage kobs at 40 uM GlcN6P [2] [s⁻¹] | self-cleavage kobs at 10000 uM GlcN6P [3] [s⁻¹] | KM [4] [µM] | self-cleavage kobs at 640 uM GlcN6P [5] [s⁻¹] | self-cleavage kobs at 2500 uM GlcN6P [6] [s⁻¹] | self-cleavage kobs at 160 uM GlcN6P [7] [s⁻¹]
1 | U47G A64G C70G | 3.26e-05 ± 9.4e-06 | < 1e-05 |  |  |  |  | 
2 | U46G C68A | 3.1e-05 ± 2.2e-06 |  | 3.1e-05 ± 1.1e-05 |  |  |  | 
3 | U46G C68G | 0.000103 ± 4e-06 |  | 9.69e-05 ± 1.7e-05 | 678 ± 110 | 5.11e-05 ± 1.8e-05 | 7.97e-05 ± 1.8e-05 | 
4 | U47G U65C | 0.000283 ± 6.3e-05 |  | 0.000232 ± 3.5e-05 |  | 7.88e-05 ± 2.3e-05 | 0.000316 ± 6.8e-05 | 
5 | U47G C61U | 2.06e-05 ± 4.9e-06 | < 1e-05 |  |  |  |  | 
6 | U47G C61G | 1.1e-05 ± 2e-06 |  |  |  |  |  | 
7 | U49C U69G | 1.6e-05 ± 5e-06 |  |  |  |  |  | 
8 | A52C C67G | 1.74e-05 ± 6.9e-06 |  |  |  |  |  | 
9 | A53U G60A C70A | 1.78e-05 ± 4.4e-06 |  |  |  |  |  | 
10 | C50G U65G | 5.8e-05 ± 2.4e-05 |  |  |  |  | 7.28e-05 ± 2.4e-05 | 4.97e-05 ± 1.7e-05
11 | A53U C70A | 0.000125 ± 2.5e-05 | 4.52e-05 ± 7.1e-06 |  |  | 0.000117 ± 1.3e-05 |  | 7.24e-05 ± 1.2e-05
12 | A48U C67U | 0.00022 ± 1.3e-05 |  | 0.00018 ± 2e-05 | 1890 ± 230 | 5.32e-05 ± 7.6e-06 | 0.000135 ± 1.7e-05 | 
13 | U47A G59A | 8.22e-05 ± 1.1e-05 | < 1e-05 | 6.07e-05 ± 1.8e-05 | 3740 ± 1100 |  | 3.14e-05 ± 1.2e-05 | 
14 | C50U U57C | < 1e-05 | < 1e-05 |  |  |  |  | < 1e-05
15 | A52U A53G | 0.000144 ± 7.6e-06 | < 1e-05 | 0.000111 ± 1e-05 | 2980 ± 430 | 3.11e-05 ± 1.3e-05 | 6.31e-05 ± 9.5e-06 | 
16 | A48C C67U | 0.000136 ± 1.3e-05 |  | 9.42e-05 ± 1.2e-05 | 4380 ± 1100 |  | 5.35e-05 ± 1.4e-05 | 
17 | U45C A53G | 0.00416 ± 0.0017 |  | 0.00291 ± 0.00074 |  | 0.000905 ± 0.00016 | 0.00188 ± 0.00042 | 0.000134 ± 4.9e-05
18 | A52C | 2.8e-05 ± 8.9e-07 | < 1e-05 | 2.56e-05 ± 1.3e-06 | 835 ± 150 | 1.03e-05 ± 3.3e-06 | 2.17e-05 ± 1.5e-06 | < 1e-05

Row | Variant | kcat [1] [s⁻¹] | self-cleavage kobs at 40 uM GlcN6P [2] [s⁻¹] | self-cleavage kobs at 10000 uM GlcN6P [3] [s⁻¹] | KM [4] [µM] | self-cleavage kobs at 640 uM GlcN6P [5] [s⁻¹] | self-cleavage kobs at 2500 uM GlcN6P [6] [s⁻¹] | self-cleavage kobs at 160 uM GlcN6P [7] [s⁻¹]
19 | A52G | 0.00319 ± 0.00046 | 3.36e-05 ± 1e-06 | 0.0022 ± 6.2e-05 | 4410 ± 790 | 0.000385 ± 9.1e-06 | 0.00127 ± 5.6e-05 | 0.000104 ± 3.3e-06
20 | A52U | 0.000465 ± 1.7e-05 |  | 0.000355 ± 5.5e-06 | 2960 ± 200 | 8.16e-05 ± 1.8e-06 | 0.000223 ± 4.8e-06 | 2.13e-05 ± 1.9e-06
21 | U45C U56G | 0.00225 ± 0.00059 |  | 0.00156 ± 0.00019 | 4840 ± 1800 | 0.000335 ± 4.1e-05 | 0.000677 ± 0.00011 | 5.85e-05 ± 1.2e-05
22 | A52G U69C | 0.000343 ± 3.8e-05 |  | 0.000381 ± 0.00011 | 425 ± 160 | 0.000215 ± 4.5e-05 | 0.000269 ± 5.7e-05 | 
23 | U54A C70A | 0.000115 ± 1.2e-05 | 5.92e-05 ± 7.9e-06 |  | 42.6 ± 17 | 0.000107 ± 1.4e-05 | 0.000122 ± 1.5e-05 | 7.42e-05 ± 1.3e-05
24 | G44A U55A | 0.000528 ± 5e-05 |  | 0.000437 ± 6.1e-05 | 2150 ± 420 | 0.000113 ± 2.3e-05 | 0.000286 ± 6.8e-05 | 5.44e-05 ± 2.2e-05
25 | A48U U54G C70U | 0.000549 ± 9.5e-05 |  | 0.000445 ± 0.00012 | 1760 ± 550 | 0.000139 ± 2.9e-05 | 0.000369 ± 9.6e-05 | 
26 | U46G U47A | 0.0123 ± 0.0053 |  | 0.0106 ± 0.0026 |  | 0.00231 ± 0.00046 | 0.00836 ± 0.0038 | 0.00128 ± 0.00029
27 | U54A G59U | 0.000197 ± 2.9e-05 |  | 5.84e-05 ± 1e-05 |  |  |  | 
28 | U54A G59A | 6.69e-05 ± 7.1e-06 |  | 4.72e-05 ± 7.4e-06 | 4220 ± 1300 |  |  | 
29 | U45G U69G | 0.000184 ± 5.8e-05 |  | 0.000152 ± 3.8e-05 |  |  |  | 
30 | G44U U46C | 1.46e-05 ± 1.4e-06 |  |  | 5110 ± 1200 |  |  | 
31 | U45A U47A | 0.0227 ± 0.0082 | 0.00126 ± 0.0002 |  |  | 0.00902 ± 0.0014 | 0.0263 ± 0.0064 | 0.00413 ± 0.001
32 | C50G C71G | 0.000204 ± 3.9e-05 | 0.000109 ± 9.6e-06 |  |  | 0.000149 ± 2.4e-05 | 0.000242 ± 3.1e-05 | 0.000249 ± 4.4e-05
33 | A52C C68A | 2.96e-05 ± 7.8e-06 |  |  |  | 3.82e-05 ± 1.2e-05 | 3.05e-05 ± 1.2e-05 | 
34 | A48G G63A | < 1e-05 | < 1e-05 |  |  |  |  | < 1e-05
35 | U45G U65G | 0.00365 ± 0.0011 | 7.22e-05 ± 2.1e-05 | 0.00282 ± 0.00077 | 2200 ± 1000 | 0.000639 ± 0.00024 | 0.00296 ± 0.00091 | 
36 | U47C U56G | 0.00245 ± 0.00054 | 7.97e-05 ± 1.3e-05 | 0.00243 ± 0.0003 | 1580 ± 540 | 0.000708 ± 8.7e-05 | 0.00108 ± 0.00025 | 0.000196 ± 4e-05

From the supplement of paper PMC7125110
